± gives the standard deviation of the averaged measurements.
Tested on: ATP
Assay: switch fluorescence ratio, 500 uM ATP over buffer (Cy3 cluster intensity, sum of 5 cycles each) (fold (ratio)); higher = stronger signal-on switching upon ATP binding; sequences stand for … in TCGTCGGCAGCGTCAGATGTGTATAAGAGACAGTTTTTTTTTTTTTTTTTTTTTTTTT…TC
Conditions: aptamer strand: ATP DNA aptamer (quencher-CACCTGGGGGAGTATTGCGGAGGAAGG + anchor), 100 nM annealed; ATP concentration: 500 uM
Outline: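 Values give the fluorescence ratio for each switch-domain sequence, averaged from per-cluster ratios of summed target-cycle to summed buffer-cycle Cy3 intensity. The Cy3-labelled switching-strand clusters sat on a modified Illumina MiSeq flow-cell, were annealed to 100 nM quencher-labelled ATP aptamer, and were imaged in selection buffer, then after 15 min with 500 uM ATP at 22 °C. Five cycles ran with NaOH stripping and re-annealing between them, and clusters outside 100-1000 RFU were excluded.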
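Note: ATP exposure 15 min at 22 °C before imaging.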

Sequence	switch fluorescence ratio
CGTGTTGGTA	0.987 ± 0.013
CTGGTGAGGG	0.9931 ± 0.0091
AGCCTCTATA	1.012 ± 0.0066
TCGTTTGGTA	0.958 ± 0.027
CGCAGAGCGA	1.02 ± 0.0082
GGATCGGGGG	1.03 ± 0.05
GGGACAGCAT	0.996 ± 0.029
CTAGGTGGAC	1.01 ± 0.012
ACTGCAGAAC	1.9 ± 0.34
ATCTATGGTG	1.02 ± 0.02
GTGGGGGGAA	0.98 ± 0.018
TGACTTTGAT	0.95 ± 0.013
CGAGAGAGTG	0.96 ± 0.02
ATTTCGAGTT	0.972 ± 0.014
TTTTTGGTCT	0.997 ± 0.027
GGAACACTGT	0.9955 ± 0.0077
TTTTTTCTTA	0.995 ± 0.023
TATAGAGTTT	1.01 ± 0.023
GAGTTCACGT	1.04 ± 0.013
GGAATCCTTG	1 ± 0.0087
GCACGGGCAC	1.18 ± 0.18
GACGGTAACT	1.14 ± 0.059
GGGAGGGGGG	0.994 ± 0.032
GTGGGAGTTG	0.969 ± 0.04
GGTTGCGATC	1.08 ± 0.03

Sequence	switch fluorescence ratio
TTCGATCTGA	0.955 ± 0.012
TTTAGAGATG	1.24 ± 0.41
GACTGTTAAG	1.02 ± 0.017
GGGGCCTCGG	0.997 ± 0.019
AACCAGAAAT	0.992 ± 0.01
TTTGAAGGTG	1.45 ± 0.17
AGTGCGTGGG	1.002 ± 0.0061
GGCCTCGCCT	0.98511 ± 9.3e-05
TAAATGTCAT	0.998 ± 0.027
CACTCATTGG	1.039 ± 0.008
TACTTAATGT	1.032 ± 0.0033
TTTAAGTACG	1.21 ± 0.048
ACCAGGTCTA	1.07 ± 0.017
TTTTATACCA	1.04 ± 0.039
TAGTGAAGGC	0.988 ± 0.013
GGGGGTTTTC	1.01 ± 0.04
ATTGACTGAT	1.03 ± 0.044
TATCCGAACG	1.4467 ± 0.00019
ATATCAATGG	1.058 ± 0.0082
TCGAACGTTT	1.324 ± 0.0088
AAAGGCCCGA	1.0084 ± 0.00039
AGGATCGAGG	1.02 ± 0.028
ACTCATGTT	0.996 ± 0.012
AACCCATGCT	1.05 ± 0.064
TGTGTTGGGG	0.969 ± 0.024

Sequence	switch fluorescence ratio
GAAAATGTCG	0.988 ± 0.07
ATATATCGGG	0.999 ± 0.013
TACTCGAGTT	0.977 ± 0.015
AAGAACTTGC	0.982 ± 0.053
TGGGTAGGGA	0.9759 ± 0.0093
AACGTTATAA	1.05 ± 0.02
CCGTTAGAGG	1.01 ± 0.038
TGGGAAAACG	1.05 ± 0.078
GAGCTCTTAT	1 ± 0.038
GGGTGATGGC	1.01 ± 0.013
GTTTGCATTT	0.981 ± 0.015
ATGGGAGGTG	1.01 ± 0.039
TTCTGCCCC	1.01 ± 0.033
GCTGGTGATC	1.02 ± 0.012
AATCGAATAT	1 ± 0.015
TTACCCTGGG	1.07 ± 0.074
TTTGCGATTT	1.15 ± 0.14
CATGAGAAGG	1.0186 ± 0.001
CCGTTTTAGT	1.02 ± 0.039
ATAAGTGGCA	0.944 ± 0.027
GGATGTTAGT	1 ± 0.008
GATGTATAGA	1.01 ± 0.022
TTGTTGCCTG	0.9907 ± 0.0083
AAGTGAAATT	1.02 ± 0.018
TTTGTGGGGA	1 ± 0.026

Sequence	switch fluorescence ratio
GGTTAGGGTG	1.047 ± 0.007
TTGTCATTTT	1.04 ± 0.067
TAGATTTGGG	0.967 ± 0.0089
CTGAGGGCG	1.045 ± 0.0058
TCCCTTGGGT	1 ± 0.0092
TGCAACCTTT	1.02 ± 0.014
TTAGATATTT	0.98 ± 0.024
TTTTGGTCAT	0.962 ± 0.053
GATACTGTTG	0.988 ± 0.027
TCAAGCCATT	0.989 ± 0.022
TCTTTGGGAT	0.962 ± 0.033
AGTTGTGGAG	0.986 ± 0.018
ATTATGGGTT	0.995 ± 0.029
GAGGAGGGGT	0.989 ± 0.039
CTAGCCTGCT	0.994 ± 0.038
TTTGATGGTA	0.943 ± 0.026
TGATTGTAAT	0.9655 ± 0.0069
GGGTATAGGA	0.944 ± 0.033
TGCTATTTAC	1.1 ± 0.069
AGTGGTGTGG	0.993 ± 0.044
AGTCGGACGG	1.01 ± 0.034
TCTGAAAGTC	0.9963 ± 0.0057
CTTTCTATGT	0.986 ± 0.029
GCGGACCCTC	1.03 ± 0.05
GAGTAGGGGG	0.993 ± 0.033

Sequence	switch fluorescence ratio
TTTTTGCTTG	0.98 ± 0.029
TCTCTGTTGA	1.01 ± 0.057
AAAGGGGTGA	0.9698 ± 0.0057
TTTAGTGAAT	0.9966 ± 0.0051
TAGGGTAAAT	0.985 ± 0.012
GGAGGGGATG	0.981 ± 0.011
ACAATCTAAA	1.033 ± 0.0091
AGGAGTACCA	1.04 ± 0.015
TATAGGCAGG	0.9772 ± 0.008
TTGGCGCCTG	0.9947 ± 0.0075
ATCAGAGCCG	0.98 ± 0.083
CAGTTTACCG	1.03 ± 0.019
AATAAGCACA	1.2 ± 0.028
CAAGGTGGTC	0.995 ± 0.029
TACTGTGTCT	0.98144 ± 0.00053
GAGGGAAATG	0.997 ± 0.098
ATAGACAGGC	1.04 ± 0.021
TTTGTATAAC	1.01 ± 0.012
AGGGGGGCTG	0.975 ± 0.045
TAATCAATGT	0.994 ± 0.011
CAGGGGGGAC	1 ± 0.022
TAGCGTAAAT	0.9913 ± 0.0049
ACGTTCGTTG	0.9908 ± 0.0096
AAAGACGCGC	0.998 ± 0.038
TGTGCGGGGG	1.02 ± 0.019

Sequence	switch fluorescence ratio
ACGGAGAAAC	1.35 ± 0.11
TTAATTACGG	1.01 ± 0.017
GAAGTTGCCC	0.994 ± 0.028
CGCTATTGTG	1.01 ± 0.021
TACAATTTTG	1.013 ± 0.0017
TAGGGGAGC	1.01 ± 0.045
GAAGGCCCTG	1.01 ± 0.04
GGTCCACCGT	0.989 ± 0.014
GCGGACTAGT	0.9883 ± 0.0052
GGGGTATTAG	0.991 ± 0.03
CGCTACTTAT	1.12 ± 0.029
TTTTTGCCTT	1 ± 0.024
TGTGATATAT	0.9877 ± 0.0011
GATAATAGTG	1.08 ± 0.073
ATCTTTTAGG	1.07 ± 0.11
AGTATGTGGG	0.996 ± 0.048
TGTTATTGAT	1.02 ± 0.029
TAAAAATAGC	1.024 ± 0.0095
TAGCAATTAT	1.81 ± 0.085
GGATTCGGTG	0.976 ± 0.02
AAGGTTGATG	0.982 ± 0.02
CGCAAAAGCA	1.2 ± 0.027
TTTTTCTCGG	0.992 ± 0.01
CGGCAGTATC	1.51 ± 0.12
TCGTTGTTTT	1.0216 ± 0.00093

Sequence	switch fluorescence ratio
AGCCATGGCT	0.9927 ± 0.0099
ACGGAATTTG	1.04 ± 0.019
ATGCATGAAA	1 ± 0.017
TTACTACGTA	1.04 ± 0.059
TTCATATACT	1.06 ± 0.034
TTATCGTATT	0.9872 ± 0.0053
TTTGGGCCTT	1.02 ± 0.034
CTCGATGGGA	0.974 ± 0.061
TTCCTTGGAG	1.01 ± 0.047
GACTTTTATT	0.989 ± 0.017
TTGTAGGGT	0.986 ± 0.014
ACTTTTGACT	0.982 ± 0.022
ATCCGTGTCG	1.02 ± 0.048
CAATGGCTTT	0.9983 ± 0.0059
GGGTGGGCGG	0.974 ± 0.022
ACCGGGCTGC	1.06 ± 0.024
ATAATGGGGT	1.026 ± 0.0044
TCTAGTGGCA	0.98 ± 0.038
AGAGAGTTTG	1.01 ± 0.02
CTTGTCATGA	1.02 ± 0.017
AGCAAATTCT	1.16 ± 0.072
ACCTCCCGTT	1.12 ± 0.064
AAAGTCTAC	1 ± 0.017
CACTGGGCGA	3.28 ± 3.2
GGGAGGAAAA	1.02 ± 0.016

Sequence	switch fluorescence ratio
GGAAACGCGA	1.54 ± 0.093
GGACTCTCGG	0.967 ± 0.024
GGGGTCAAGC	1.01 ± 0.03
TTGGGGCAAC	1.03 ± 0.047
GGAGTTGTGA	0.995 ± 0.021
GGTAATGCTT	1 ± 0.05
AAAGGGGACA	1.02 ± 0.054
CCCTTGGGGG	1.01 ± 0.014
TAAAACGCCC	1.15 ± 0.04
ACAGGGGTTT	1.37 ± 0.7
CTCTGACGGC	1.12 ± 0.12
AGTGCATTGG	1 ± 0.024
GCATTAATGG	1.04 ± 0.051
GTGGAAAGTA	0.997 ± 0.011
AAGAGGGGTG	1.01 ± 0.025
TTGTTTGTGC	1.02 ± 0.023
TTTGAAAGGT	1.04 ± 0.072
ATAGTTACGC	1.03 ± 0.022
CTTTTAGCTG	1 ± 0.019
GGGGGACTAA	0.996 ± 0.042
CAATAGGGCA	0.943 ± 0.024
GGCAACAGCG	1.039 ± 0.003
CGGAGGAGTA	1.03 ± 0.03
AGAGGGGGGG	0.999 ± 0.038
CCATTTGCGG	1.001 ± 0.0088

From the supplement of paper PMC10126150
